Data on eight molecules can be found in patent US20250145694A1 (GUANGDONG FEIPENG BIOLOGICAL, published 2025).

B1: Mutation 1-9 (antibody)
heavy: EVQMVESGGGLLKPGGSLKLSCAASGFTFSNYAMSWVRQTPEKRLEWVATISSGGSYSFYPDSVKGRFTISRDNAKNTLYLQMLSLRSEDTAMYYCARRDNYYGSTFMDYWGQGSSVTVSSAKTTPPSVYPLAPGSAAQTNSMVTLGCLVKGYFPEPVTVTWNSGSLSSGVHTFPAVLQSDLYTLSSSVTVPSSTWPSQTVTCNVAHPASSTKVDKKIVPRDCGCKPCICTVPEVSSVFIFPPKPKDVLTITLTPKVTCVVVDISKDDPEVQFSWFVDDVEVHTAQTKPREEQFNSTFRSVSELPIMHQDWLNGKEFKCRVNSAAFPAPIEKTISKTKGRPKAPQVYTIPPPKEQMAKDKVSLTCMITNFFPEDITVEWQWNGQPAENYKNTQPIMDTDGSYFVYSKLNVQKSNWEAGNTFTCSVLHEGLHNHHTEKSLSHSPG
light: DIQMTQTSSSLSASLGDRVTISCRASQDITNYLNWYQQKPDGTIKLLIYYTSRLHSGVSSRFSGSGSGTDYSLTISNLEQEDIATYFCQQGNTLPLTFDTGTKLELKRADAAPTVSIFPPSSEQLTSGGASVVCFLNNFYPKDINVKWKIDGSERQNGVLNSWTDQDSKDSTYSMSSTLTLTKDEYERHNSYTCEATHKTSTSPIVKSFNRNEC
notes: assembled FR/CDR/constant
B2: Mutation 1-11 (antibody)
heavy: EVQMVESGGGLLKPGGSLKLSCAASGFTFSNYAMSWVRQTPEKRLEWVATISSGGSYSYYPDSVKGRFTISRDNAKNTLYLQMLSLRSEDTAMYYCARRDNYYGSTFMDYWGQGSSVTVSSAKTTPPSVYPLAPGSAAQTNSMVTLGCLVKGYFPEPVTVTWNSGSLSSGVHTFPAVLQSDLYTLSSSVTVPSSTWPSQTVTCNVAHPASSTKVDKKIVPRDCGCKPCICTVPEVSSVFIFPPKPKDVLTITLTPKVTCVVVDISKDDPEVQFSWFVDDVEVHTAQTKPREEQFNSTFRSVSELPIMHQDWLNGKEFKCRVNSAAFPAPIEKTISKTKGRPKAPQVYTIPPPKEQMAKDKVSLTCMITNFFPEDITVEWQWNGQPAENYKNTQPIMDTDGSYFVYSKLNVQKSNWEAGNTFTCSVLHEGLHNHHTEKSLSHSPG
light: DIQMTQTSSSLSASLGDRVTISCRASQDITNYLNWYQQKPDGTIKLLIYYTSRLHSGVSSRFSGSGSGTDYSLTISNLEQEDIATYFCQQGNTIPLTFDTGTKLELKRADAAPTVSIFPPSSEQLTSGGASVVCFLNNFYPKDINVKWKIDGSERQNGVLNSWTDQDSKDSTYSMSSTLTLTKDEYERHNSYTCEATHKTSTSPIVKSFNRNEC
notes: assembled FR/CDR/constant
B3: Mutation 1-15 (antibody)
heavy: EVQMVESGGGLLKPGGSLKLSCAASGFTFSNYAMSWVRQTPEKRLEWVATISSGGSYSYYPDSVKGRFTISRDNAKNTLYLQMLSLRSEDTAMYYCARRDNYFGSSFMDYWGQGSSVTVSSAKTTPPSVYPLAPGSAAQTNSMVTLGCLVKGYFPEPVTVTWNSGSLSSGVHTFPAVLQSDLYTLSSSVTVPSSTWPSQTVTCNVAHPASSTKVDKKIVPRDCGCKPCICTVPEVSSVFIFPPKPKDVLTITLTPKVTCVVVDISKDDPEVQFSWFVDDVEVHTAQTKPREEQFNSTFRSVSELPIMHQDWLNGKEFKCRVNSAAFPAPIEKTISKTKGRPKAPQVYTIPPPKEQMAKDKVSLTCMITNFFPEDITVEWQWNGQPAENYKNTQPIMDTDGSYFVYSKLNVQKSNWEAGNTFTCSVLHEGLHNHHTEKSLSHSPG
light: DIQMTQTSSSLSASLGDRVTISCRASQEITNYLNWYQQKPDGTIKLLIYYTSRIHSGVSSRFSGSGSGTDYSLTISNLEQEDIATYFCQQGNTLPLTFDTGTKLELKRADAAPTVSIFPPSSEQLTSGGASVVCFLNNFYPKDINVKWKIDGSERQNGVLNSWTDQDSKDSTYSMSSTLTLTKDEYERHNSYTCEATHKTSTSPIVKSFNRNEC
notes: assembled FR/CDR/constant
B4: Mutation 1-14 (antibody)
heavy: EVQMVESGGGLLKPGGSLKLSCAASGFTYSNYAMSWVRQTPEKRLEWVATISSGGSYSFYPDSVKGRFTISRDNAKNTLYLQMLSLRSEDTAMYYCARRDNYFGSTFMDYWGQGSSVTVSSAKTTPPSVYPLAPGSAAQTNSMVTLGCLVKGYFPEPVTVTWNSGSLSSGVHTFPAVLQSDLYTLSSSVTVPSSTWPSQTVTCNVAHPASSTKVDKKIVPRDCGCKPCICTVPEVSSVFIFPPKPKDVLTITLTPKVTCVVVDISKDDPEVQFSWFVDDVEVHTAQTKPREEQFNSTFRSVSELPIMHQDWLNGKEFKCRVNSAAFPAPIEKTISKTKGRPKAPQVYTIPPPKEQMAKDKVSLTCMITNFFPEDITVEWQWNGQPAENYKNTQPIMDTDGSYFVYSKLNVQKSNWEAGNTFTCSVLHEGLHNHHTEKSLSHSPG
light: DIQMTQTSSSLSASLGDRVTISCRASQDITNYLNWYQQKPDGTIKLLIYYTSRLHSGVSSRFSGSGSGTDYSLTISNLEQEDIATYFCQQGHTIPLTFDTGTKLELKRADAAPTVSIFPPSSEQLTSGGASVVCFLNNFYPKDINVKWKIDGSERQNGVLNSWTDQDSKDSTYSMSSTLTLTKDEYERHNSYTCEATHKTSTSPIVKSFNRNEC
notes: assembled FR/CDR/constant
B5: Mutation 1-10 (antibody)
heavy: EVQMVESGGGLLKPGGSLKLSCAASGFTYSNYAMSWVRQTPEKRLEWVATISSGGSYSFYPDSVKGRFTISRDNAKNTLYLQMLSLRSEDTAMYYCARRDNYYGSSFMDYWGQGSSVTVSSAKTTPPSVYPLAPGSAAQTNSMVTLGCLVKGYFPEPVTVTWNSGSLSSGVHTFPAVLQSDLYTLSSSVTVPSSTWPSQTVTCNVAHPASSTKVDKKIVPRDCGCKPCICTVPEVSSVFIFPPKPKDVLTITLTPKVTCVVVDISKDDPEVQFSWFVDDVEVHTAQTKPREEQFNSTFRSVSELPIMHQDWLNGKEFKCRVNSAAFPAPIEKTISKTKGRPKAPQVYTIPPPKEQMAKDKVSLTCMITNFFPEDITVEWQWNGQPAENYKNTQPIMDTDGSYFVYSKLNVQKSNWEAGNTFTCSVLHEGLHNHHTEKSLSHSPG
light: DIQMTQTSSSLSASLGDRVTISCRASQDITNYLNWYQQKPDGTIKLLIYYTSRIHSGVSSRFSGSGSGTDYSLTISNLEQEDIATYFCQQGHTLPLTFDTGTKLELKRADAAPTVSIFPPSSEQLTSGGASVVCFLNNFYPKDINVKWKIDGSERQNGVLNSWTDQDSKDSTYSMSSTLTLTKDEYERHNSYTCEATHKTSTSPIVKSFNRNEC
notes: assembled FR/CDR/constant
B6: Mutation 1-13 (antibody)
heavy: EVQMVESGGGLLKPGGSLKLSCAASGFTFSNYAMSWVRQTPEKRLEWVATISSGGSYSFYPDSVKGRFTISRDNAKNTLYLQMLSLRSEDTAMYYCARRDNYPGSSFMDYWGQGSSVTVSSAKTTPPSVYPLAPGSAAQTNSMVTLGCLVKGYFPEPVTVTWNSGSLSSGVHTFPAVLQSDLYTLSSSVTVPSSTWPSQTVTCNVAHPASSTKVDKKIVPRDCGCKPCICTVPEVSSVFIFPPKPKDVLTITLTPKVTCVVVDISKDDPEVQFSWFVDDVEVHTAQTKPREEQFNSTFRSVSELPIMHQDWLNGKEFKCRVNSAAFPAPIEKTISKTKGRPKAPQVYTIPPPKEQMAKDKVSLTCMITNFFPEDITVEWQWNGQPAENYKNTQPIMDTDGSYFVYSKLNVQKSNWEAGNTFTCSVLHEGLHNHHTEKSLSHSPG
light: DIQMTQTSSSLSASLGDRVTISCRASQEITNYLNWYQQKPDGTIKLLIYYTSRIHSGVSSRFSGSGSGTDYSLTISNLEQEDIATYFCQQGNTIPLTFDTGTKLELKRADAAPTVSIFPPSSEQLTSGGASVVCFLNNFYPKDINVKWKIDGSERQNGVLNSWTDQDSKDSTYSMSSTLTLTKDEYERHNSYTCEATHKTSTSPIVKSFNRNEC
notes: assembled FR/CDR/constant
B7: Mutation 1-17 (antibody)
heavy: EVQMVESGGGLLKPGGSLKLSCAASGFTFSNYAMSWVRQTPEKRLEWVATISSGGSYSFYPDSVKGRFTISRDNAKNTLYLQMLSLRSEDTAMYYCARRDNYYGSSFMDYWGQGSSVTVSSAKTTPPSVYPLAPGSAAQTNSMVTLGCLVKGYFPEPVTVTWNSGSLSSGVHTFPAVLQSDLYTLSSSVTVPSSTWPSQTVTCNVAHPASSTKVDKKIVPRDCGCKPCICTVPEVSSVFIFPPKPKDVLTITLTPKVTCVVVDISKDDPEVQFSWFVDDVEVHTAQTKPREEQFNSTFRSVSELPIMHQDWLNGKEFKCRVNSAAFPAPIEKTISKTKGRPKAPQVYTIPPPKEQMAKDKVSLTCMITNFFPEDITVEWQWNGQPAENYKNTQPIMDTDGSYFVYSKLNVQKSNWEAGNTFTCSVLHEGLHNHHTEKSLSHSPG
light: DIQMTQTSSSLSASLGDRVTISCRASQDITNYLNWYQQKPDGTIKLLIYYTSRLHSGVSSRFSGSGSGTDYSLTISNLEQEDIATYFCQQGHTIPLTFDTGTKLELKRADAAPTVSIFPPSSEQLTSGGASVVCFLNNFYPKDINVKWKIDGSERQNGVLNSWTDQDSKDSTYSMSSTLTLTKDEYERHNSYTCEATHKTSTSPIVKSFNRNEC
notes: assembled FR/CDR/constant
B8: Mutation 1-12 (antibody)
heavy: EVQMVESGGGLLKPGGSLKLSCAASGFTYSNYAMSWVRQTPEKRLEWVATISSGGSYSYYPDSVKGRFTISRDNAKNTLYLQMLSLRSEDTAMYYCARRDNYPGSTFMDYWGQGSSVTVSSAKTTPPSVYPLAPGSAAQTNSMVTLGCLVKGYFPEPVTVTWNSGSLSSGVHTFPAVLQSDLYTLSSSVTVPSSTWPSQTVTCNVAHPASSTKVDKKIVPRDCGCKPCICTVPEVSSVFIFPPKPKDVLTITLTPKVTCVVVDISKDDPEVQFSWFVDDVEVHTAQTKPREEQFNSTFRSVSELPIMHQDWLNGKEFKCRVNSAAFPAPIEKTISKTKGRPKAPQVYTIPPPKEQMAKDKVSLTCMITNFFPEDITVEWQWNGQPAENYKNTQPIMDTDGSYFVYSKLNVQKSNWEAGNTFTCSVLHEGLHNHHTEKSLSHSPG
light: DIQMTQTSSSLSASLGDRVTISCRASQEITNYLNWYQQKPDGTIKLLIYYTSRLHSGVSSRFSGSGSGTDYSLTISNLEQEDIATYFCQQGHTLPLTFDTGTKLELKRADAAPTVSIFPPSSEQLTSGGASVVCFLNNFYPKDINVKWKIDGSERQNGVLNSWTDQDSKDSTYSMSSTLTLTKDEYERHNSYTCEATHKTSTSPIVKSFNRNEC
notes: assembled FR/CDR/constant

A word on the Kd: it is the free concentration of one partner at which half of the binding sites on the other are occupied at equilibrium, for simple one-to-one binding. As a reminder, the koff is a measure of how fast the partners let go of each other. The kon is the rate constant with which the complex forms.

This assay deals with T1, CTNI quality control recombinant antigen (human, UniProt P19429 1-210, limits assumed).
T1 construct: Recombinant antigen produced by the applicant; also called CTNI quality control recombinant protein (antigen produced by the company); cardiac troponin I
T1 sequence (P19429 whole entry): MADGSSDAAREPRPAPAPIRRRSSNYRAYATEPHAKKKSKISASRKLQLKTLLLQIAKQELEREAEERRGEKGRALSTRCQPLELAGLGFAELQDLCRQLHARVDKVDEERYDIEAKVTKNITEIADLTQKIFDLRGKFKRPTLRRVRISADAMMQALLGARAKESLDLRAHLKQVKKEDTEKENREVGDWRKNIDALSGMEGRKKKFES
Nature of the assay: BLI, antibody on AMC sensor, cTnI in solution. How it is done:
With an AMC sensor, the purified antibody was diluted to 10 μg/ml with PBST, and CTNI quality control recombinant protein (antigen produced by the company) was gradient diluted with PBST to 769.2 nmol/ml, 384.6 nmol/ml, 192.3 nmol/ml, 96.2 nmol/ml, 48.1 nmol/ml, 24 nmol/ml, 12 nmol/ml, and 0 nmol/ml.
(BLI is a label-free optical method that tracks binding on a fibre tip over time.)
Take B1: the equilibrium dissociation constant (Kd) turned out to be 8.6 nM, the koff was found to be 0.000184 s⁻¹ and the kon amounted to 21400 M⁻¹ s⁻¹.

Regarding B2, the Kd was determined as 4.4 nM, the dissociation rate constant (koff) came to 4.75e-05 s⁻¹ and the kon amounted to 10800 M⁻¹ s⁻¹.

For the molecule B3, the Kd was 3.8 nM, the koff amounted to 0.000145 s⁻¹ and the kon came out at 38100 M⁻¹ s⁻¹.

Turning to B4, the Kd was 7.76 nM, the koff turned out to be 0.000498 s⁻¹ and the kon came to 64200 M⁻¹ s⁻¹.

Take B5: the dissociation constant (Kd) was found to be 5.05 nM, the koff amounted to 0.000346 s⁻¹ and the kon is 68500 M⁻¹ s⁻¹.

In the case of B6, the dissociation constant Kd amounted to 4.12 nM, the koff is 0.000354 s⁻¹ and the kon was found to be 86000 M⁻¹ s⁻¹.

On to B7, for which the Kd was 9.22 nM, the koff turned out to be 0.000336 s⁻¹ and the kon was determined as 36400 M⁻¹ s⁻¹.

For the molecule B8, the Kd was 1.52 nM, the koff amounted to 0.000135 s⁻¹ and the kon was 88600 M⁻¹ s⁻¹.
